From patent publication US20220259593A1, “CONTROL OF MAMMALIAN GENE DOSAGE USING CRISPR” (The Regents of the University of California, priority 2019, published 2022)
Numbering of substitutions follows the chain as printed.

Tested on: K562 CRISPRi cells
Test: Constant region variant library pooled growth screen, K562
Assay type: cell-based, human
Settings: sgRNA constant region variants; activity relative to the original, un-modified constant region cr995
Summary of the method: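 Library of sgRNA constant-region variants, each paired with 36 targeting sequences (essential-gene and non-targeting), transduced in duplicate into K562 CRISPRi cells, puromycin-selected and grown 4–8 days at >2000× coverage. Activity per variant is its growth phenotype normalised to the same targeting sequence with unmodified constant region.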

B1: cr975 (nucleic acid)
guide: GTTTAAGAGCTAAGCTGGAAACAGCATAGCAACTTTAAATATGGCTAGTCCGTTATCAACTTGAAAAAGTGGCACCGAGTCGGTGCT
modifications: listed as DNA, chemistry not fully specified
Mean relative activity: 0.002152

B2: cr035 (nucleic acid)
guide: B1 guide with T4G, A6T, C33G, T42A
modifications: listed as DNA, chemistry not fully specified
Mean relative activity: 0.0006927

B3: cr828 (nucleic acid)
guide: B1 guide with A32G, C33G, T42A
modifications: listed as DNA, chemistry not fully specified
Mean relative activity: 1.028

B4: cr535 (nucleic acid)
guide: B1 guide with C33G, T42A, C51A
modifications: listed as DNA, chemistry not fully specified
Mean relative activity: −0.0004281

B5: cr810 (nucleic acid)
guide: B1 guide with C33G, T34G, T42A, G77C, C81G
modifications: listed as DNA, chemistry not fully specified
Mean relative activity: 0.002026

B6: cr143 (nucleic acid)
guide: B1 guide with T42A, G44A, C50T
modifications: listed as DNA, chemistry not fully specified
Mean relative activity: 0.001524

B7: cr912 (nucleic acid)
guide: B1 guide with C33G, T34C, A41G, T42A, T53G
modifications: listed as DNA, chemistry not fully specified
Mean relative activity: −1.05E−05

B8: cr355 (nucleic acid)
guide: B1 guide with C33G, T34G, T42A, T62A, A67T
modifications: listed as DNA, chemistry not fully specified
Mean relative activity: 0.001771

B9: cr178 (nucleic acid)
guide: B1 guide with C33T, A41G, T42A, A58G
modifications: listed as DNA, chemistry not fully specified
Mean relative activity: −0.0008744

B10: cr326 (nucleic acid)
guide: B1 guide with C33G, T34C, T42A, G43C, C51G
modifications: listed as DNA, chemistry not fully specified
Mean relative activity: −0.001062

B11: cr099 (nucleic acid)
guide: B1 guide with C33T, T42A, T49G
modifications: listed as DNA, chemistry not fully specified
Mean relative activity: 0.0005052

B12: cr129 (nucleic acid)
guide: B1 guide with C33G, T42A, T61G, A65G, A68C
modifications: listed as DNA, chemistry not fully specified
Mean relative activity: 1.029

B13: cr039 (nucleic acid)
guide: B1 guide with T2A, A6T, C33G, T42A
modifications: listed as DNA, chemistry not fully specified
Mean relative activity: −0.0006181

B14: cr106 (nucleic acid)
guide: B1 guide with C33G, T34G, T42A, G44T, C50A
modifications: listed as DNA, chemistry not fully specified
Mean relative activity: 0.001355

B15: cr930 (nucleic acid)
guide: B1 guide with A32T, C33G, T42A, T49G, C57T
modifications: listed as DNA, chemistry not fully specified
Mean relative activity: 0.001721

B16: cr751 (nucleic acid)
guide: B1 guide with A28C, T42A, G52T
modifications: listed as DNA, chemistry not fully specified
Mean relative activity: −0.000557

B17: cr149 (nucleic acid)
guide: B1 guide with C33G, T42A, G43C, C51G, G72T, C86A
modifications: listed as DNA, chemistry not fully specified
Mean relative activity: 0.00167

B18: cr787 (nucleic acid)
guide: B1 guide with T42A, G43C, C51G
modifications: listed as DNA, chemistry not fully specified
Mean relative activity: 0.0008483

B19: cr637 (nucleic acid)
guide: B1 guide with G29T, C33G, T34A, T42A, A65G
modifications: listed as DNA, chemistry not fully specified
Mean relative activity: −0.001265

B20: cr350 (nucleic acid)
guide: B1 guide with C33G, T34C, T42A, G43T, C51A
modifications: listed as DNA, chemistry not fully specified
Mean relative activity: 0.001423

B21: cr093 (nucleic acid)
guide: B1 guide with A5C, A6G, C33G, T42A
modifications: listed as DNA, chemistry not fully specified
Mean relative activity: 0.001456

B22: cr629 (nucleic acid)
guide: B1 guide with T42A, C60A, G69T
modifications: listed as DNA, chemistry not fully specified
Mean relative activity: −5.97E−5

B23: cr786 (nucleic acid)
guide: B1 guide with C33G, A41T, T42A, A55G, C57G
modifications: listed as DNA, chemistry not fully specified
Mean relative activity: 0.001749

B24: cr874 (nucleic acid)
guide: B1 guide with C33G, T34G, T42A, G43T, C51A
modifications: listed as DNA, chemistry not fully specified
Mean relative activity: 0.002144

B25: cr083 (nucleic acid)
guide: B1 guide with T3G, A5G, C33G, T42A
modifications: listed as DNA, chemistry not fully specified
Mean relative activity: 0.001403

B26: cr939 (nucleic acid)
guide: B1 guide with T42A, T46A, G52C
modifications: listed as DNA, chemistry not fully specified
Mean relative activity: 4.94E−05

B27: cr431 (nucleic acid)
guide: B1 guide with C33G, T34G, T42A, A65G, A78C
modifications: listed as DNA, chemistry not fully specified
Mean relative activity: −0.0002713

B28: cr579 (nucleic acid)
guide: B1 guide with C33G, T42A, G52C, T53A
modifications: listed as DNA, chemistry not fully specified
Mean relative activity: −0.000418

B29: cr244 (nucleic acid)
guide: B1 guide with C33G, T34G, T42A, C45G, G48C
modifications: listed as DNA, chemistry not fully specified
Mean relative activity: 0.00149

B30: cr497 (nucleic acid)
guide: B1 guide with C33G, T42A, A65G, C73A, G85T
modifications: listed as DNA, chemistry not fully specified
Mean relative activity: 1.028
